Test results reported in PMC12455665, “Convergent construction of N-terminally modified CCL5 chemokines for photoaffinity receptor pull-down using cross-aldol bioconjugations” (RSC Chemical Biology, 2025).

Biological target: T1, CCR5 chemokine receptor on CHO-CCR5 cells (UniProt P51681 1-352)
T1 construct: also called the receptor; source: Chinese hamster ovary cell line (CHO), stably expressing CCR5
Assay: not stated; receptor binding of CCL5 P2G against wild-type CCL5 (Fig. S14); methods in the SI, not shown

T1 sequence (P51681 whole entry): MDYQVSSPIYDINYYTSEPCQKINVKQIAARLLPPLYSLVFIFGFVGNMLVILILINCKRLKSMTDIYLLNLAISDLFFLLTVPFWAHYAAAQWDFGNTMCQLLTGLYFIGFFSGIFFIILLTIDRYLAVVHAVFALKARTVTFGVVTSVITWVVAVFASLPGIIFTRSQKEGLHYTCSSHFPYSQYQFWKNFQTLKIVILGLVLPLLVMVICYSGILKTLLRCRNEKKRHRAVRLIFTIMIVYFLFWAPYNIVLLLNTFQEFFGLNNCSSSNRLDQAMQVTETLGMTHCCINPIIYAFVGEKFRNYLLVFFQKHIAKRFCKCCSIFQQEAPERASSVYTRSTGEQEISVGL

B1: CCL5 P2G 1 (ligand, human, UniProt P13501 24-91, looked up)
chain: SGYSSDTTPCCFAYIARPLPRAHIKEYFYTSGKCSNPAVVFVTRKNRQVCANPEKKWVREYINSLEMS
notes: Human C–C chemokine ligand 5 (CCL5, RANTES), with its native N-terminal serine after traceless SUMO cleavage, point mutant P2G; also called CCL5 point mutant (P2G); CCL5 P2G variant; source: E. coli SHuffle LysY, purified (His-SUMO tag capture, SUMO protease cleavage); not shown: His, N-terminal, cleaved; SUMO, N-terminal, cleaved
  fold reduction of binding against wild-type CCL5: 3 fold
